As a reminder, the stoichiometry N is the number of molecules, sites or subunits per partner or assembly.

The values that follow come from paper PMC10320583 (Journal of Structural Biology: X, 2023).

The target of data set [1] is E. coli LptAm-GSGGSGSG-AviTag, biotinylated (E. coli) (UniProt P0ADV1).
The data set “crystal structure” deals with the molecule itself. The experiment in a line: crystal structure.
Data set [2] deals with T1, E. coli LptAm-GSGGSGSG-AviTag, biotinylated (E. coli, UniProt P0ADV1 28-158, biotin on the AviTag (BirA biotin-protein ligase)).
T1 sequence (looked up): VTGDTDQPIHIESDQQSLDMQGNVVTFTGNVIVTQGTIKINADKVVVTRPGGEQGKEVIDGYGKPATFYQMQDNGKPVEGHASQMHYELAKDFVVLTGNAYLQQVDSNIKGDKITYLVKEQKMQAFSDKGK
As to the kind of experiment: BLI. In general terms: BLI is a label-free optical method that tracks binding on a fibre tip over time.

“Murgantia histrionica thanatin (peptide)” showed an MIC against E. coli ATCC 25922 in data set [1] of 1.1 µg/mL.

With Chinavia ubica thanatin (peptide), the MIC against E. coli ATCC 25922 in data set [1] amounted to 1.4 µg/mL.

B1: E. coli LptAm (truncated monomeric LptA) (domain or fragment, UniProt P0ADV1 28-158, looked up)
chain: VTGDTDQPIHIESDQQSLDMQGNVVTFTGNVIVTQGTIKINADKVVVTRPGGEQGKEVIDGYGKPATFYQMQDNGKPVEGHASQMHYELAKDFVVLTGNAYLQQVDSNIKGDKITYLVKEQKMQAFSDKGK
For the molecule B1, in “crystal structure”, the “stoichiometry N” value was found to be 2.

B2: P. maculiventris thanatin M21I (peptide, UniProt P55788 1-21, looked up)
peptide: GSKKPVPIIYCNRRTGKCQRI
In the case of B2, the “fold improvement of binding over P. maculiventris thanatin” value in data set [2] is around 3 fold.

B3: P. maculiventris thanatin Q19R (peptide, UniProt P55788 1-21, looked up)
peptide: GSKKPVPIIYCNRRTGKCRRM
B3: the “fold improvement of binding over P. maculiventris thanatin” value in data set [2] is around 3 fold.

B4: P. maculiventris thanatin Y10A/M21I (peptide, UniProt P55788 1-21, looked up)
peptide: GSKKPVPIIACNRRTGKCQRI
Turning to B4, in data set [2], the “fold improvement of binding over P. maculiventris thanatin” value was around 3 fold.

B5: P. maculiventris thanatin Y10A (peptide, UniProt P55788 1-21, looked up)
peptide: GSKKPVPIIACNRRTGKCQRM
B5: the “fold improvement of binding over P. maculiventris thanatin” value in data set [2] is around 3 fold.
